Tests used:
[1] = molecular target: endogenous TDP-43 of murine N2a cells and mouse brain (mouse, UniProt Q921F2 1-414); assay: co-immunoprecipitation from N2a cells and mouse brain
[2] = molecular target: FOXO1 (UniProt Q12778 1-655, limits assumed); assay: co-precipitation with expressed Fx
[3] = molecular target: YES-associated protein (YAP) (UniProt P46937 1-504); assay: co-precipitation with expressed Fx
Chain of YES-associated protein (YAP) (P46937 whole entry): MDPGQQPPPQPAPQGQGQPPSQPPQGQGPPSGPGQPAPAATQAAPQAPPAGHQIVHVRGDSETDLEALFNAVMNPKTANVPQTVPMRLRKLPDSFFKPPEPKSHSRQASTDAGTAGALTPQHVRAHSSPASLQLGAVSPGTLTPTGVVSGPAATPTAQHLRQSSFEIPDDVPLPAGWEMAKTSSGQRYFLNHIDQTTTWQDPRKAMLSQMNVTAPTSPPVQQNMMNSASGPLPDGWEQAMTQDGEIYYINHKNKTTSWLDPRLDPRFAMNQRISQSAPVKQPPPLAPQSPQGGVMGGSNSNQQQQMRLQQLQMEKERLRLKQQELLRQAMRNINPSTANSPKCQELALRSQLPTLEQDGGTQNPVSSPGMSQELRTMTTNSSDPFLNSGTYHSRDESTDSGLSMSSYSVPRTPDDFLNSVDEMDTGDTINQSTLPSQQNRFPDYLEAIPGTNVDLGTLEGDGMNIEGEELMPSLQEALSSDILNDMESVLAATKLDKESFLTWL

Chain of endogenous TDP-43 of murine N2a cells and mouse brain (Q921F2 whole entry): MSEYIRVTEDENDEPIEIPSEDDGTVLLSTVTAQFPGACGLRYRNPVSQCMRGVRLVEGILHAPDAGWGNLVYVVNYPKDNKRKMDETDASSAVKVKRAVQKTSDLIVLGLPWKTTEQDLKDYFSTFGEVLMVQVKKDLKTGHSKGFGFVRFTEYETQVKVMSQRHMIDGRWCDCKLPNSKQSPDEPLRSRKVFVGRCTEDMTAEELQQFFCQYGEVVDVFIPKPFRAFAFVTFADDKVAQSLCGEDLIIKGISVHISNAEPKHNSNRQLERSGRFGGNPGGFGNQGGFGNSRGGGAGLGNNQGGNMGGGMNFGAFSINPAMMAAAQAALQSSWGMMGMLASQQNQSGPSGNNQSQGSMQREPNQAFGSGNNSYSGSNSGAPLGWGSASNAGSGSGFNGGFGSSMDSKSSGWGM
Chain of FOXO1 (Q12778 whole entry): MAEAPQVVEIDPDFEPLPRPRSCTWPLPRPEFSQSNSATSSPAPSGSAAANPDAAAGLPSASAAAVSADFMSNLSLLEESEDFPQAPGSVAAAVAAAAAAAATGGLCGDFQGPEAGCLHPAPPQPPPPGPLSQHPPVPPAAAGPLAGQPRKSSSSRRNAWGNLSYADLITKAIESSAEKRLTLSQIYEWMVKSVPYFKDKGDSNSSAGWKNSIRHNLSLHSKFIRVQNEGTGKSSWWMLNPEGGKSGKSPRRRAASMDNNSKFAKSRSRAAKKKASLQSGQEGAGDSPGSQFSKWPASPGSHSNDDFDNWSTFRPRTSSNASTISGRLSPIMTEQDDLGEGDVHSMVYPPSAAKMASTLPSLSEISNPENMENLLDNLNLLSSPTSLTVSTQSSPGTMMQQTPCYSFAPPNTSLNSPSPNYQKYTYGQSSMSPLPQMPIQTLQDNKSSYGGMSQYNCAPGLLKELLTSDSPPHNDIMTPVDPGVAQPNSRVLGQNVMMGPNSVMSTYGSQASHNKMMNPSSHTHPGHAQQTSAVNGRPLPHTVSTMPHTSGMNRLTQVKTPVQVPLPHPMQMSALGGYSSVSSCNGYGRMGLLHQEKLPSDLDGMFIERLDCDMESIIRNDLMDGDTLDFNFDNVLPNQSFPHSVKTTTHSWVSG

Binder	binding result [1]	binding result [2]	binding result [3]
endogenous 14-3-3θ of murine N2a cells and mouse brain (other, UniProt P68254 1-245, looked up) MEKTELIQKAKLAEQAERYDDMATCMKAVTEQGAELSNEERNLLSVAYKNVVGGRRSAWRVISSIEQKTDTSDKKLQLIKDYREKVESELRSICTTVLELLDKYLIANATNPESKVFYLKMKGDYFRYLAEVACGDDRKQTIENSQGAYQEAFDISKKEMQPTHPIRLGLALNFSVFYYEILNNPELACTLAKTAFDEAIAELDTLNEDSYKDSTLIMQLLRDNLTLWTSDSAGEECDAAEGAEN	binds		
GDDRKQTIDNSQGAYQEAFDISKKEMQPTH (not shown: V5 tag) [14-3-3θ-Fx-V5 (α-helix 6 (αF) of 14-3-3θ alone)]		no binding	no binding

From patent publication US20260091080A1 (CELOSIA THERAPEUTICS, published 2026)
